Sequences and labels used below:
T1: Apelin Receptor (APJ) stably overexpressed in CHO-K1 AGTRL1 Gi cells (UniProt P35414 1-380, limits assumed)
T1 sequence (looked up): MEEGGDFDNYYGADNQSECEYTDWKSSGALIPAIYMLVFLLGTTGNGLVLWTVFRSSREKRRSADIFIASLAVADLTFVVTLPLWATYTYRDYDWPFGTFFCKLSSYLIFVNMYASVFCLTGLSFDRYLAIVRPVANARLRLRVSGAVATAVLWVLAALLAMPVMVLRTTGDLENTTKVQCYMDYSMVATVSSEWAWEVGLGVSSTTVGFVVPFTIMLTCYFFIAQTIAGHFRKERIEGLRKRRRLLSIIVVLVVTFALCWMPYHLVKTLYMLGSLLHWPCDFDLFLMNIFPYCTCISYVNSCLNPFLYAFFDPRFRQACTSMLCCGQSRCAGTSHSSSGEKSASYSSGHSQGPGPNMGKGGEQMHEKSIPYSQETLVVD

B1: SEQ ID NO: 42 (peptide)
peptide: [PEG12′]KRRIIGIVFQCLCG[dA]
modifications: cysteine pairing not given here
B2: SEQ ID NO: 40 (peptide)
peptide: RRLLGLVEQSLCG[dA]
B3: SEQ ID NO: 11 (peptide)
peptide: RRMMGMVAQCLCG[dA]
modifications: cysteine pairing not given here
B4: SEQ ID NO: 47 (peptide)
peptide: MMGMVFQS
B5: SEQ ID NO: 50 (peptide)
peptide: RMMGMVF
B6: SEQ ID NO: 15 (peptide)
peptide: RRMMGMVFQSLCG[dA]
modifications: also: acetate salt, HCl salt
B7: SEQ ID NO: 14 (peptide)
peptide: RRMMGMVFQCLEG[dA]
B8: SEQ ID NO: 13 (peptide)
peptide: RRMMGMVFQELCG[dA]
B9: SEQ ID NO: 49 (peptide)
peptide: MMGMVFQSLCG[dA]
B10: SEQ ID NO: 12 (peptide)
peptide: RRMMGMVEQCLCG[dA]
modifications: cysteine pairing not given here
B11: SEQ ID NO: 41 (peptide)
peptide: RRLLGLVFQSLEG[dA]
B12: SEQ ID NO: 46 (peptide)
peptide: MMGMVFQ
B13: SEQ ID NO: 36 (peptide)
peptide: KRRMMGMVFQSLCGA
modifications: (PEG12) at the N-terminal K; C-terminal (dA) = D-alanine
B14: SEQ ID NO: 51 (peptide)
peptide: RMMGMVFQ
B15: SEQ ID NO: 45 (peptide)
peptide: MMGMVF
B16: SEQ ID NO: 7 (peptide)
peptide: MRRMMGMVFQCLCGL
B17: SEQ ID NO: 44 (peptide)
peptide: MMGMV
B18: SEQ ID NO: 37 (peptide)
peptide: KRRLLGLVFQSLCGA
modifications: (PEG12) at the N-terminal K; C-terminal (dA) = D-alanine
B19: SEQ ID NO: 48 (peptide)
peptide: MMGMVFQSL
B20: SEQ ID NO: 43 (peptide)
peptide: RRIIGIVFQSLCG[dA]

Square brackets hold non-standard residues; d marks the D form. Primed or numbered codes have the meaning given here. Ends that are not written are not given here. PEG12′ = not defined here

For one assay, the target named is ProLink tagged human APJ (Apelin Receptor) in CHO-K1 AGTRL1 β-Arrestin cells (human, UniProt P35414 1-380). Briefly: cell-based or functional assay.
Take B1: the “β-Arrestin recruitment, Percent of Apelin-13 Control Activity (10 µM peptide)” value (shortened to “β-Arrestin recruitment, Percent”) was 8%.
Same read-out and setting: the value for B2 was 0%.
Regarding B3, the “β-Arrestin recruitment, Percent” value was found to be 0%.
Take B4: the “β-Arrestin recruitment, Percent” value was 1%.
Same read-out and setting: the value for B5 was 0%; that for B6 was 40%.
Still for that read-out and setting: the value for B7 was 0%.
As to B8, the “β-Arrestin recruitment, Percent” value was 1%.
On the same count and under the same terms, the value for B9 was 1%; that for B10 was -1%; that for B11 was 0%.
Turning to B12, the “β-Arrestin recruitment, Percent” value was found to be 0%.
On the same count and under the same terms, as for B13, the figure is 63%.
For B14, the “β-Arrestin recruitment, Percent” value amounted to 0%.
On to B15, for which the “β-Arrestin recruitment, Percent” value was 0%.
Still for that read-out and setting: as for B16, the figure is 91%; as for B17, 0%.
Still for that read-out and setting: the value for B18 was 12%; that for B19 was 1%.

Another assay addresses T1, Apelin Receptor (APJ) stably …. The assay is described as follows: cell-based or functional assay.
Turning to B1, the “inhibition of forskolin-induced cAMP, Percent of Pyr-Apelin-13 Control Activity (10 µM peptide)” value is 33%.
B2: the “inhibition of forskolin-induced cAMP, Percent of Pyr-Apelin-13 Control Activity (10 µM peptide)” value stood at 19%.
For the molecule B3, the “inhibition of forskolin-induced cAMP, Percent of Pyr-Apelin-13 Control Activity (10 µM peptide)” value amounted to 49%.
Same read-out and setting: as for B4, the figure is -6%; as for B5, 8%.
For the molecule B6, the “inhibition of forskolin-induced cAMP, Percent of Pyr-Apelin-13 Control Activity (10 µM peptide)” value was found to be 105%.
Still for that read-out and setting: as for B7, the figure is 39%; as for B8, 49%; as for B9, 14%.
In the case of B10, the “inhibition of forskolin-induced cAMP, Percent of Pyr-Apelin-13 Control Activity (10 µM peptide)” value turned out to be 24%.
Turning to B11, the “inhibition of forskolin-induced cAMP, Percent of Pyr-Apelin-13 Control Activity (10 µM peptide)” value came to 15%.
On to B12, for which the “inhibition of forskolin-induced cAMP, Percent of Pyr-Apelin-13 Control Activity (10 µM peptide)” value was determined as 11%.
Regarding B13, the “inhibition of forskolin-induced cAMP, Percent of Pyr-Apelin-13 Control Activity (10 µM peptide)” value was 101%.
With B14, the “inhibition of forskolin-induced cAMP, Percent of Pyr-Apelin-13 Control Activity (10 µM peptide)” value is 24%.
For B15, the “inhibition of forskolin-induced cAMP, Percent of Pyr-Apelin-13 Control Activity (10 µM peptide)” value was determined as 10%.
With B16, the “inhibition of forskolin-induced cAMP, Percent of Pyr-Apelin-13 Control Activity (10 µM peptide)” value came out at 109%.
In the case of B17, the “inhibition of forskolin-induced cAMP, Percent of Pyr-Apelin-13 Control Activity (10 µM peptide)” value was 5%.
The same measure, in the same setting: the value for B18 was 53%; that for B19 was 15%.

For a further assay the target is unchanged. Briefly: cell-based or functional assay. This is another data set of the same source.
As to B1, the “IC50 (M), inhibition of forskolin-stimulated cAMP accumulation” value (“IC50 (M), inhibition” for short) is 4.38e-06 M.
Same read-out and setting: as for B20, the figure is 2.07e-06 M.
Still for that read-out and setting: the value for B6 was 4.49e-06 M; that for B13 was 1.6e-06 M.
For the molecule B16, the “IC50 (M), inhibition” value is 1.24e-06 M.
Regarding B18, the “IC50 (M), inhibition” value was 2.5e-06 M.
